# According to patent US11732029B2, “Methods and compositions for the treatment of wounds” (The University of Chicago, priority 2017, dated 2023):
# T1: VEGF-A165 (Homo sapiens, UniProt P15692)
# T1 construct: All growth factors (GFs) and chemokines were purchased in their mature forms; purchased PeproTech; host or cells: Escherichia coli
# T1 sequence (P15692 27-191 isoform P15692-4 limits assumed): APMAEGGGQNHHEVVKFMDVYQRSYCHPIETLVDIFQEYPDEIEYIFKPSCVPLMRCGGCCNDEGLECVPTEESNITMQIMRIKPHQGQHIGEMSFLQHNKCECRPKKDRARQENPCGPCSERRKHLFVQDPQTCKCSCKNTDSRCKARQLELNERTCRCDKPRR
# T2: VEGF-A121 (Homo sapiens, UniProt P15692)
# T2 sequence (P15692 27-147 isoform P15692-9 limits assumed): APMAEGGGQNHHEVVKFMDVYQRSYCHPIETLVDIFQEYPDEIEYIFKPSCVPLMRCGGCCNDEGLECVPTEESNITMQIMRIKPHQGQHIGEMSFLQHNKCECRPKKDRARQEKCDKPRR
# T3: PlGF-2 (Homo sapiens, UniProt P49763)
# T3 sequence (P49763 19-170 isoform P49763-3 limits assumed): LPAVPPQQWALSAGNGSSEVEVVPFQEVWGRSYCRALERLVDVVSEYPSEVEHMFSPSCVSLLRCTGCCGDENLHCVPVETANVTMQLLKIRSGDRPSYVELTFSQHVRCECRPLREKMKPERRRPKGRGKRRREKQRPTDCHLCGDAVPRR
# T4: PlGF-1 (Homo sapiens, UniProt P49763)
# T4 sequence (P49763 19-149 isoform P49763-2 limits assumed): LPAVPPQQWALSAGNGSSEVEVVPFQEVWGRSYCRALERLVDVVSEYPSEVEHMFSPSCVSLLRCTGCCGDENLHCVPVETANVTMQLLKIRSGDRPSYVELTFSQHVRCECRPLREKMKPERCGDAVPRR
# B1: α32928-3150: recombinant human laminin alpha 3 LG domain Ser2928-Cys3150 (linker domain and LG4 domain), 6 His (protein)
# chain: HHHHHHSLNKPPFLMLLKGSTRFNKTKTFRINQLLQDTPVASPRSVKVWQDACSPLPKTQANHGALQFGDIPTSHLLFKLPQELLKPRSQFAVDMQTTSSRGLVFHTGTKNSFMALYLSKGRLVFALGTDGKKLRIKSKEKCNDGKWHTVVFGHDGEKGRLVVDGLRAREGSLPGNSTISIRAPVYLGSPPSGKPKSLPTNSFVGCLKNFQLDSKPLYTPSSSFGVSSC
# B2: α53026-3482: laminin alpha 5 LG domain recombinant protein (LD BioPharma) (protein)
# chain: AIQVFLLGGSRKRVLVRVERATVYSVEQDNDLELADAYYLGGVPPDQLPPSLRRLFPTGGSVRGCVKGIKALGKYVDLKRLNTTGVSAGCTADLLVGRAMTFHGHGFLRLALSNVAPLTGNVYSGFGFHSAQDSALLYYRASPDGLCQVSLQQGRVSLQLLRTEVKTQAGFADGAPHYVAFYSNATGVWLYVDDQLQQMKPHRGPPPELQPQPEGPPRLLLGGLPESGTIYNFSGCISNVFVQRLLGPQRVFDLQQNLGSVNVSTGCAPALQAQTPGLGPRGLQATARKASRRSRQPARHPACMLPPHLRTTRDSYQFGGSLSSHLEFVGILARHRNWPSLSMHVLPRSSRGLLLFTARLRPGSPSLALFLSNGHFVAQMEGLGTRLRAQSRQRSRPGRWHKVSVRWEKNRILLVTDGARAWSQEGPHRQHQGAEHPQPHTLFVGGLPASSHSSKLP
# B3: α4826-1816: laminin alpha 4 LG domain recombinant protein (R&D systems) (protein)
# chain: QVSMMFDGQSAVEVHSRTSMDDLKAFTSLSLYMKPPVKRPELTETADQFILYLGSKNAKKEYMGLAIKNDNLVYVYNLGTKDVEIPLDSKPVSSWPAYFSIVKIERVGKHGKVFLTVPSLSSTAEEKFIKKGEFSGDDSLLDLDPEDTVFYVGGVPSNFKLPTSLNLPGFVGCLELATLNNDVISLYNFKHIYNMDPSTSVPCARDKLAFTQSRAASYFFDGSGYAVVRDITRRGKFGQVTRFDIEVRTPADNGLILLMVNGSMFFRLEMRNGYLHVFYDFGFSGGPVHLEDTLKKAQINDAKYHEISIIYHNDKKMILVVDRRHVKSMDNEKMKIPFTDIYIGGAPPEILQSRALRAHLPLDINFRGCMKGFQFQKKDFNLLEQTETLGVGYGCPEDSLISRRAYFNGQSFIASIQKISFFDGFEGGFNFRTLQPNGLLFYYASGSDVFSISLDNGTVIMDVKGIKVQSVDKQYNDGLSHFVISSVSPTRYELIVDKSRVGSKNPTKGKIEQTQASEKKFYFGGSPISAQYANFTGCISNAYFTRVDRDVEVEDFQRYTEKVHTSLYECPIESSPLFLLHKKGKNLSKPKASQNKKGGKSKDAPSWDPVALKLPERNTPRNSHCHLSNSPRAIEHAYQYGGTANSRQEFEHLKGDFGAKSQFSIRLRTRSSHGMIFYVSDQEENDFMTLFLAHGRLVYMFNVGHKKLKIRSQEKYNDGLWHDVIFIRERSSGRLVIDGLRVLEESLPPTEATWKIKGPIYLGGVAPGKAVKNVQINSIYSFSGCLSNLQLNGASITSASQTFSVTPCFEGPMETGTYFSTEGGYVVLDESFNIGLKFEIAFEVRPRSSSGTLVHGHSVNGEYLNVHMKNGQVIVKVNNGIRDFSTSVTPKQSLCDGRWHRITVIRDSNVVQLDVDSEVNHVVGPLNPKPIDHREPVFVGGVPESLLTPRLAPSKPFTGCIRHFVIDGHPVSFSKAALVSGAVSINSCPAA
# How the values were obtained:
# [1] = target: T5, PDGF-BB (Homo sapiens, UniProt P01127); test: Surface plasmon resonance, laminin against GF; conditions: SPR; laminin protein immobilized on chip, GF flowed; Langmuir binding kinetics
# T5 construct: All growth factors (GFs) and chemokines were purchased in their mature forms; purchased PeproTech; host or cells: Escherichia coli
# Description: (§1) SPR analysis was performed as described previously^2. In brief, measurements were made with a Biacore 3000 SPR system (GE Healthcare). Laminin-521 or laminin α32928-3150 was immobilized via amine coupling on a C1 chip (GE Healthcare) for ˜2000 or ˜1000 resonance units (RU), respectively, according to the manufacturer's instructions. VEGF-A165, PDGF-BB, or PlGF-2 was flowed at increasing concentrations in the running buffer at 20 μL/min. The sensor chip was regenerated with 50 mM NaOH for every cycle. Specific bindings of GFs to laminin were calculated by comparison to a non-functionalized channel used as a reference. Experimental results were fitted with Langmuir binding kinetics using BIAevaluation software (GE Healthcare).
# [2] = target: T1, VEGF-A165; test: Surface plasmon resonance, laminin against GF; conditions: SPR; laminin protein immobilized on chip, GF flowed; Langmuir binding kinetics
# Description: as §1
# [3] = target: T5, PDGF-BB; test: GF binding to recombinant laminin LG domain protein and synthesized laminin HBD peptides (ELISA); conditions: plate coated with LG domain protein or peptide, 1 μg/mL GF, vs BSA-coated wells
# Description: (§2) ELISA tests were performed as described above. In brief, ELISA plates were coated with 1 μg/mL of laminin alpha 3 LG domain recombinant protein, laminin alpha 4 LG domain recombinant protein (R&D systems), laminin alpha 5 LG domain recombinant protein (LD BioPharma), or laminin peptide (sequences are described in Table 1, chemically synthesized by Genscript) in PBS for 2 hrs at 37° C. 1 μg/mL of BSA served as non-binding protein control. After blocking with 2% BSA PBS-0.05% Tween 20 (PBS-T) solution, 1 μg/mL of the recombinant human proteins (VEGF-A121, VEGF-A165, PlGF-1, PlGF-2, PDGF-BB or FGF-2) or 10 μg/mL of biotinylated heparin (Sigma-Aldrich) were added. Bound GF was detected with biotinylated antibodies for human VEGF, PlGF, PDGF-BB, or FGF-2 (R&D Systems). The antibodies were detected by streptavidin-HRP (R&D Systems).
# [4] = target: T1, VEGF-A165; test: as above; conditions: plate coated with LG domain protein or peptide, 1 μg/mL GF, vs BSA-coated wells
# Description: as §2
# [5] = target: T2, VEGF-A121; test: as above; design: All growth factors (GFs) and chemokines were purchased in their mature forms; purchased PeproTech; host or cells: Escherichia coli; conditions: plate coated with LG domain protein or peptide, 1 μg/mL GF, vs BSA-coated wells
# Description: as §2
# [6] = target: T3, PlGF-2; test: as above; design: All growth factors (GFs) and chemokines were purchased in their mature forms; purchased PeproTech; host or cells: Escherichia coli; conditions: plate coated with LG domain protein or peptide, 1 μg/mL GF, vs BSA-coated wells
# Description: as §2
# [7] = target: FGF-2 (Homo sapiens, UniProt P09038); test: as above; design: All growth factors (GFs) and chemokines were purchased in their mature forms; purchased PeproTech; host or cells: Escherichia coli; conditions: plate coated with LG domain protein or peptide, 1 μg/mL GF, vs BSA-coated wells
# Description: as §2
# [8] = target: T4, PlGF-1; test: as above; design: All growth factors (GFs) and chemokines were purchased in their mature forms; purchased PeproTech; host or cells: Escherichia coli; conditions: plate coated with LG domain protein or peptide, 1 μg/mL GF, vs BSA-coated wells
# Description: as §2
# T5 sequence (P01127 82-190 limits assumed): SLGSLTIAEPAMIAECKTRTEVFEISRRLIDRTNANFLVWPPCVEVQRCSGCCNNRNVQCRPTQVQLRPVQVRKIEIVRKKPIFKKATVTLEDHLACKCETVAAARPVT
# Chain of FGF-2 (P09038 143-288): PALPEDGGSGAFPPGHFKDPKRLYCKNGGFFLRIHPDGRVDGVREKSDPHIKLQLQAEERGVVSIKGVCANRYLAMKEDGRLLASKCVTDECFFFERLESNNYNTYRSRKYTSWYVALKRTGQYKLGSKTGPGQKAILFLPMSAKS
Molecule,Kd [1] [nM],Kd [2] [nM],binding to PDGF-BB [3],binding to VEGF-A165 [4],binding to VEGF-A121 [5],binding to PlGF-2 [6],binding to FGF-2 [7],binding to PlGF-1 [8]
B1,10.2,1.2,bound,bound,did not show any binding,bound,bound,did not show any binding
B2,–,–,bound,bound,did not show any binding,bound,bound,did not show any binding
B3,–,–,bound,bound,did not show any binding,bound,bound,did not show any binding
